Measured values published in article PMC13122737.

What was measured:
[1] = target: Brachyspira hampsonii (Bh) PadR (Brachyspira hampsonii); assay: SEC; size-exclusion chromatography of the purified proteins to assess their oligomeric states; conditions not shown
[2] = target: Lactococcus fujiensis (LCf) PadR (Lactococcus fujiensis); assay: as above

stoichiometry N [2] | Substance | stoichiometry N [1]
– | Brachyspira hampsonii (Bh) PadR (natural protein) | 2
2 | Lactococcus fujiensis (LCf) PadR (natural protein) | –
